Measured values: PMC5861120, “Architecture of the Saccharomyces cerevisiae NuA4/TIP60 complex” (Nature Communications, 2018)

Assays:
[1] = biological target: T1, Purified native TINTIN (Eaf5-Eaf7-Eaf3) (S. cerevisiae, UniProt P39995 1-279; P53911 1-425; Q12432 1-401); test: pull-down; 300–600 ng GST-tagged Eaf1 fragments immobilised on glutathione sepharose, incubated with purified native TINTIN or His-tagged Tra1 (3200–3744) for 3–4 h at 4 °C; binding buffer 25 mM HEPES pH 7.5, 100 mM NaCl, 10% glycerol, 0.1% Tween-20; western blotting (anti-TAP, anti-Eaf3, anti-His); conditions: both partners purified
T1 construct: Eaf5, S. cerevisiae; Eaf7, S. cerevisiae; Eaf3, S. cerevisiae; The pull-down blots used anti-TAP and anti-Eaf3, so one subunit probably carries a TAP tag or its remnant; also called TINTIN subcomplex; source: purified native TINTIN; copies: + +
T1 sequence (looked up) 1: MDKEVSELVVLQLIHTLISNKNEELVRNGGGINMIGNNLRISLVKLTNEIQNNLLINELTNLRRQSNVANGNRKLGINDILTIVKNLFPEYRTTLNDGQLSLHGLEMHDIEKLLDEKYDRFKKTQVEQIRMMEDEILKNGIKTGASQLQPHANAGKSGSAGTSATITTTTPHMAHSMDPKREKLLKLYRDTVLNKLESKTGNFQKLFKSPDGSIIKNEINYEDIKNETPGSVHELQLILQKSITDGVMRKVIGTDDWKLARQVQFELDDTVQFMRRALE
T1 sequence (looked up) 2: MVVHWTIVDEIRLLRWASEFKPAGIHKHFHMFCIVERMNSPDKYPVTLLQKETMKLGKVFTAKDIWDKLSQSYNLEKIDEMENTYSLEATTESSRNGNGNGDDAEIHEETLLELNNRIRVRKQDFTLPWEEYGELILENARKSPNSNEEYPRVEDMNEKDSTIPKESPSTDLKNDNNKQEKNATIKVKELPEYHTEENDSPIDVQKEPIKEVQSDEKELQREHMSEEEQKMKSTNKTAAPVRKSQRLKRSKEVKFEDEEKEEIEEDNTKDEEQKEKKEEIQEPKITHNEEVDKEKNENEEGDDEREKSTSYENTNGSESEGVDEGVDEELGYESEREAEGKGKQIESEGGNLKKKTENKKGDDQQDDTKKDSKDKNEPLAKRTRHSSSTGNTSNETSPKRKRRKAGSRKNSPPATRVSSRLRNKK
T1 sequence (looked up) 3: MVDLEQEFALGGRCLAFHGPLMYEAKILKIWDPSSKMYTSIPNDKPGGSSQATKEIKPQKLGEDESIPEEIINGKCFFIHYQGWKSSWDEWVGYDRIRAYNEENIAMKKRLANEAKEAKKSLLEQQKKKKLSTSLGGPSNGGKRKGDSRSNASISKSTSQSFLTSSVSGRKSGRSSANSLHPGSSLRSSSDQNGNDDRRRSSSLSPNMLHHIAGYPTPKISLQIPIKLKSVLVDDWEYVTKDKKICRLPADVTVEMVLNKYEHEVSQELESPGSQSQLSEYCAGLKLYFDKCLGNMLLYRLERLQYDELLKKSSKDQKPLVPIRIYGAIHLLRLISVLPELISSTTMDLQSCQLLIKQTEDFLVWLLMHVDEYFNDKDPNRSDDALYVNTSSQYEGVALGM

[2] = biological target: T2, Recombinant His-tagged Tra1 (3200–3744) (S. cerevisiae, UniProt P38811 3200-3744); test: as above; conditions: both partners purified
T2 construct: Tra1, S. cerevisiae, residues 3200–3744 (FRB-PI3K-FATC); also called recombinant Tra1 C-terminus (FRB-PI3K-FATC); source: recombinant, bacterial culture, purified (Ni-NTA, eluted with imidazole)
T2 sequence (looked up): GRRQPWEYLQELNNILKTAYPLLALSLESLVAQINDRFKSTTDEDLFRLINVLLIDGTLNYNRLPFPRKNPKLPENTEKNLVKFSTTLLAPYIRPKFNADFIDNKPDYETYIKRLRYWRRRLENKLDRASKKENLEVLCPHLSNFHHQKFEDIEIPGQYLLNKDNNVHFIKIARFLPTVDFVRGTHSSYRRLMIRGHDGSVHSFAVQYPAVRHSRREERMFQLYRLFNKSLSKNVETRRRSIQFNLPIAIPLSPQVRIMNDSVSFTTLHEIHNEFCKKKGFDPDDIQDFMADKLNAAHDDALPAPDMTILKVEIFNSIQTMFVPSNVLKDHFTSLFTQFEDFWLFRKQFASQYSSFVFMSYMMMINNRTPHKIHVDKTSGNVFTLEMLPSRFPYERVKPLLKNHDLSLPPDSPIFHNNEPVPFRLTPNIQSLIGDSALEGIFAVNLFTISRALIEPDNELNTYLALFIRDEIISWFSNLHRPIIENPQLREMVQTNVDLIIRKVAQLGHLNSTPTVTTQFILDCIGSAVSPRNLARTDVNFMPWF

B1: GST-tagged Eaf1 (1–530) (domain or fragment, S. cerevisiae, UniProt Q06337 1-530, looked up)
chain: MSSRPSSAVPNSASLSEDQSSDRSKFPKADDLIDERDRKLTELYCVSRLNQLLELTDENKLRKEIDAFLKKNDIRRGIRFDEASLPKLLHTAATPITKKKLKDVNLINVPNQRLSDSKMSRELPENSENVSVKSESHFVPSHDNSIRENMMDSLRPAEKTGGMWNKRPLESTMGGEEERHEKRQKMQSQSLESSNNSEMASLPISPRPPVPNALAHYTYYENIEYPPADPTEVQPAVKFKDPLIKNIMAKEIDTSDHYNENNVDALETVFLLMNDYIPSKIPQALPLAELKYMSQTLPLINLIPRAHKALTTNIINNALNEARITVVGSRIEELRRLGLWSLRQPKRFIDPWKQHNTHQNILLEEAKWMQADFKEGHKYKVAICTAMAQAIKDYWTYGEICCVKRKTLLPGKENKLSDDGRISEKSGRPSDTSRNDSDISIAGKDDIGIIANVDDITEKESAAANDNDENGKNEAGAKSDFDFADGLLSQEGAHDQIISSIDTKLLLKKPSSSSEVVLIQHEVAASSALI
notes: also called Eaf1 N-terminal half; N-terminal portion of Eaf1; source: recombinant, bacterial culture, held on glutathione sepharose beads
[1]
  binding result: binds

B2: GST-tagged Eaf1 (536–982) (domain or fragment, S. cerevisiae, UniProt Q06337 536-982, looked up)
chain: KKELAPPFKLSIFVDELNTFEKTLIQDLPLYNGINEERPKKDDSLPFIPISKSVVSLDDNGFYKLLERQLIDEEPSISQLSKRRGMFYGNRRNHYLRPPAVPSLRYLQNRTPTIWLSEDDQELVKNINTYGYNWELISAHMTHRLTYSYLSNIERRTPWQCFERFVQLNERFNFSDLKGPRAHSAQQWLIEAHKFQQRQNRRISPLGVNTESIQRGHRRLRWASMFEAIRKCMKKRENTPRPNPTQPRKPLDCKNMKVPTPAEMSLLKAQRDEALRRDIQLRRTVKNRLQQRQQQSQQAHSSRAQSPIPSNGKSSSNLARNGQASAPRPNQKQYTEQDIIESYSRKLLEQKPDIGPEMALKAAKNYYRTLREQQQQLKQHQIQQQRQQLQEESSHVQQLQQLQPGSQAPPPKSSPSQSSLSNISNINSAPRIKSPTPQEILQRFQKQ
notes: also called Eaf1 C-terminal half; C-terminal region of Eaf1; source: recombinant, bacterial culture, held on glutathione sepharose beads
[2]
  binding result: binds
